Data from patent EP4793287A1, “TUMOR MICROENVIRONMENT SPECIFICALLY ACTIVATED CD47 ANTIBODY” (Affinity (Shanghai) Biopharmaceutical Co., Ltd., priority 2023, dated 2025).
Read-outs that look alike come from different tables or passages of the source.

Experiments:
[1] = biological target: antibody antigen (CD47) coated in the ELISA of Example 3 (UniProt Q08722); assay: ELISA on coated antigen, ratio against wild-type 70H1
[2] = biological target: T1, CD47 on Raji cells (human, UniProt Q08722 19-323); assay: flow cytometry on Raji cells
T1 construct: whole, on cells

[3] = biological target: T2, Recombinant human CD47 protein (DIMA BIOTECH, Cat# PME-100008) (human, UniProt Q08722 19-139, limits assumed); assay: ELISA on coated recombinant human CD47
T2 construct: Bought protein, coated on ELISA plates; also called CD47 antigen

[4] = biological target: T3, CD47 on CHOK1-CD47 cells (UniProt Q08722 19-323); assay: flow cytometry on CHOK1-CD47 cells
T3 construct: whole, on cells; The rabbits were immunized with human CD47, so human is likely

[5] = biological target: T3, CD47 on CHOK1-CD47 cells; assay: flow cytometry on CHOK1-CD47 cells; remark: listed apart in the source
[6] = biological target: T3, CD47 on CHOK1-CD47 cells; assay: flow cytometry on CHOK1-CD47 cells; remark: listed apart in the source
[7] = biological target: T4, human CD47 antigen (immobilized on CM5 chip, Biacore) (human, UniProt Q08722 19-139, limits assumed); assay: SPR (Biacore T200), CD47 antigen on CM5 chip, antibody as analyte, 1:1 model
[8] = biological target: T1, CD47 on Raji cells; assay: flow cytometry on Raji cells; remark: listed apart in the source
[9] = biological target: T4, human CD47 antigen (immobilized on CM5 …); assay: SPR (Biacore T200)
[10] = biological target: T2, Recombinant human CD47 protein (DIMA …); assay: ELISA on coated recombinant human CD47; remark: listed apart in the source

T1 sequence (Q08722 19-323): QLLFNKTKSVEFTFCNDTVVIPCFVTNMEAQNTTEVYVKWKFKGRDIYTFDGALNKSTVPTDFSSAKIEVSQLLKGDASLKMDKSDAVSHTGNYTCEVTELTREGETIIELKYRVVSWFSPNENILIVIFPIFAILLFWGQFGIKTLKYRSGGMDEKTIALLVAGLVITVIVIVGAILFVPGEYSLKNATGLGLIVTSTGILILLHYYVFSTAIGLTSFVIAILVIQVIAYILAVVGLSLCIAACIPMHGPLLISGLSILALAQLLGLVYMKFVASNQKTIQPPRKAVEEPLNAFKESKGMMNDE
T3 sequence (Q08722 19-323 limits assumed): as the sequence (Q08722 19-323) above
T2 sequence (Q08722 19-139 limits assumed): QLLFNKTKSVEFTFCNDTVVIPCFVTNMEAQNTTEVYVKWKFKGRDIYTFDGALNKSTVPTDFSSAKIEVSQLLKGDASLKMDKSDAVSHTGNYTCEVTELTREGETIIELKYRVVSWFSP
T4 sequence (Q08722 19-139 limits assumed): as above
antibody antigen (CD47) coated in the ELISA of Example 3, sequence (Q08722 19-139 limits assumed): as above

| Binder | Mutant Binding Strength (EC50 post-mutation / EC50 wild-type) [1] | EC50 [2] | EC50 [3] | EC50 [4] | EC50 [5] | EC50 [6] | Kd [7] | koff [7] | kon [7] | fold lower binding compared to 70H1 [8] | fold lower binding compared to 70H1 [6] | fold decrease of affinity compared to 70H1 [9] | fold weaker binding affinity compared to 70H1 [10] |
| --- | --- | --- | --- | --- | --- | --- | --- | --- | --- | --- | --- | --- | --- |
| 70H1.IgG1.Y61C (antibody, V domains shown, IgG1; also called 70H1 IgG1-mutation; 70H1 mutant VH-61 (Y-C)) VH: QQQLEESGGGLVKPEGSLTLTCTASGFSFSSGYDMCWVRQAPGRGLEWIACIYTRSSGGTCYASWAKGRFTISKTSSTVDLRMTSLTAADTATYFCAGGRSSYRLNLWGQGALVTVSS VL: DVVMTQTPSPVEAAVGGTVTIKCQASQSISNELSWYQQKPGQPPKLLIYRASTLESGVSSRFKGSGSGTEFTLTISDLECADAATYYCQSTFYGDYGNAFGGGTEVVVK | 1 | 0.47 nM | 0.07 nM | 0.39 nM | – | – | – | – | – | – | – | – | – |
| 70H1 (antibody, V domains shown, Rabbit-derived variable regions; also called 70H1.IgG1; 70H1 antibody) VH: QQQLEESGGGLVKPEGSLTLTCTASGFSFSSGYDMCWVRQAPGRGLEWIACIYTRSSGGTYYASWAKGRFTISKTSSTVDLRMTSLTAADTATYFCAGGRSSYRLNLWGQGALVTVSS VL: DVVMTQTPSPVEAAVGGTVTIKCQASQSISNELSWYQQKPGQPPKLLIYRASTLESGVSSRFKGSGSGTEFTLTISDLECADAATYYCQSTFYGDYGNAFGGGTEVVVK | – | – | 0.12 nM | 0.38 nM | 0.35 nM | 0.91 nM | 0.0308 nM | 0.00014 s⁻¹ | 4.54e+06 M⁻¹ s⁻¹ | – | – | – | – |
| CD47 TMEAbody activated (antibody, IgG1, V domains shown, Cys 61 (Y61C): 20K PEG blocker cleaved off by legumain (asparaginyl endopeptidase); what remains on the Cys is not stated, The CD47 TMEAbody after treatment with legumain / asparaginyl endopeptidase; IgG1) VH: QQQLEESGGGLVKPEGSLTLTCTASGFSFSSGYDMCWVRQAPGRGLEWIACIYTRSSGGTCYASWAKGRFTISKTSSTVDLRMTSLTAADTATYFCAGGRSSYRLNLWGQGALVTVSS VL: DVVMTQTPSPVEAAVGGTVTIKCQASQSISNELSWYQQKPGQPPKLLIYRASTLESGVSSRFKGSGSGTEFTLTISDLECADAATYYCQSTFYGDYGNAFGGGTEVVVK | – | 0.24 nM | 0.15 nM | 0.91 nM | – | – | – | – | – | – | – | – | – |
| 74F1 (antibody, V domains shown, Recombinant rabbit monoclonal antibody expressed in Expi293; it was detected with anti-human IgG Fc) VH: QQQLEESGGDLVKPEGSLTLTCTASGFSFSSRYNMCWVRQAPGKGLEWIACIYTGSSGSTYYASWAKGRFTISKTSSTVDLKMTSLTAADTATYFCAGGSYSYRLNLWGQGTLVTVSS VL: DVVMTQTPASVSTAVGGTVTIKCQASQSISNELSWYQQKPGQPPKLLIYRASTLESGVSSRFSGSGSGTEFTLTISDLECADAATYYCQATGYGDFGNAFGGGTEVVVK | – | – | – | – | – | 2.82 nM | – | – | – | – | – | – | – |
| CD47 TMEAbody (70H1.IgG1.Y61C + 20K PEG) (antibody, V domains shown, Cys 61 (Y61C) conjugated with PEG of approximately 20K molecular weight (blocker, cleavable by legumain), IgG1; The same question of backbone applies as for 70H1.IgG1.Y61C; also called 70H1 TMEAbody; 70H1; IgG1 + 20K PEG) VH: QQQLEESGGGLVKPEGSLTLTCTASGFSFSSGYDMCWVRQAPGRGLEWIACIYTRSSGGTCYASWAKGRFTISKTSSTVDLRMTSLTAADTATYFCAGGRSSYRLNLWGQGALVTVSS VL: DVVMTQTPSPVEAAVGGTVTIKCQASQSISNELSWYQQKPGQPPKLLIYRASTLESGVSSRFKGSGSGTEFTLTISDLECADAATYYCQSTFYGDYGNAFGGGTEVVVK | – | 31.9 nM | 0.72 nM | 7.6 nM | – | – | 14.1 nM | 0.000343 s⁻¹ | 24400 M⁻¹ s⁻¹ | ~60 fold | ~20 fold | 470 fold | ~7 fold |
